Assay results published in publication PMC9271180 (Proceedings of the National Academy of Sciences of the …, 2022).

How the values were obtained:
[1] = target: HrtB permease subunit of the heme efflux pump HrtBA from Corynebacterium diphtheriae (Corynebacterium diphtheriae NCTC13129); assay: crystal structure
HrtBA = details: 2 mM ATP; lipid nanodiscs; 37 °C; activation of ATPase; site in HrtB dimer

EC50 (HrtBA) [nM] | Compound | stoichiometry N [1]
 | HrtB permease subunit of the heme efflux pump HrtBA from Corynebacterium diphtheriae (natural protein) | 2
900 | C=CC1=C(C)C2=Cc3c(C=C)c(C)c4[n]3[Fe+][n]3c(c(C)c(CCC(=O)O)c3=CC3=NC(=C4)C(C)=C3CCC(=O)O)=CC1=N2 [heme] | 
